From the DeepSol protein solubility set

Assay: soluble on expression in E. coli; label from the status in PepcDB or PDB records

Sequence	soluble on expression in E. coli
RFSEVLSTPEYDNAKSPVTLALGHDIGGKPVITDLAKMPHLLVAGTTGSGKSVGVNAMILSILFKSGPEDAKLIMIDPKMLELSIYEGIPHLLCPVVTDMKDAANALRWSVAEMERRYKLMAKMGVRNLSGFNQKVKEAQDAGEPLADPLYKRESIHDEAPLLTKLPTIVVVVDEFADMMMIVGKKVEELIARIAQKARAAGIHLILATQRPSV	not soluble
MGSDKIHHHHHHMSDKKYNVDEGEIAKFSRIADKWWDKSGEFKTLHDINPLRLDYIDGHADLCGKRVLDVGCGGGILAESMARRGAAFVKGIDMAEQSLETARLHAALNNVADIEYECIRVEDLAEAEPHSFDVVTCMEMMEHVPDPAAIVRACAKLVKPDGMVFFSTINKNPKSYLHLIVAAEYLLKFVPKGTHDWKKFIVPAELARMCRQAGLDVADTKGMTYHVLSQTYALCDSTDVNYMFACRPAF	not soluble
MIYKNRLLKTIRYNVKATTISPLAIRDDEDNLKIDQLTGKVYIPGSSVAGAFRNYYENYIDKNSNENFNELFGGQKTGMSQIVFYDGYLVNDYVKEMISSRPGIKMDLKRMTVEVSDDAKKSGKKFKRRFLNEGLTFEFVFELNNYEDDAGKFEEKQRKFEELLKAFSIGDISLGSNKMIGYGRFRVDSISKSVFDFTNINDLLKYMLMETDSTEITQDILGREQETSKVRFKIKGKTVTPLLVKDETVRLSNESDGINIKDSRGNYIIPGSSIKGVIRSRAERLHRTFPCIGEEILTNIFGIESKKDDDGHISRLSCFDAVVKNPNKGIYNKIKIDYFTGGVMQGALMNDEVVMGDVEIECTFNTSGLNDYKREIGLLLLVLRDLCKEDLSIGSGYAVGRGYIKAETLELYDGEKLVLDFKSPNREVLKRFDSYISSLMNVG	soluble
MPNNLELKQLIASAQVLGLQNDSSLPAFDRQILRMADEEKRALSPTEIQHICQTSKVDAQLIEQLQSQANHLVQQAREFLVKEQPHLVQSGGALFPSERAEACWRDCWQFFRVIVYAIACKRPLFTDAEGMGALRALYAHVGVPIEGLNIALKQLKVLSRQEISGAIEAPLLSESFGHLLEELNKTGVKS	not soluble
MGSDKIHHHHHHVKQQRKEIQVLDRLNQAMEYIERHLDQRIEGAELAQIAATSEYHMRRLFSALAGMPLSEYIRRRRLTVAGAEVLAGDRTLLDIAVRYGYGSAEAFARAFRAMHGVGPGEARRTGAPLRSQPRMSFRLVVEGSTDMRYRIVEKDAFQVVGKKARVPLVYEGPNPAIVEFVRSIDPGTLQRLAELSDQEPRGVVAAVANIAGERVSAPEGTELDYYHGVVTSAPAPEDMAVLPVAAGLWAVFEVEGEAPYAIQYLWRDVFTQWFPANPYQSVPGPELLRTTMSQDGAYVEAELWVPVERVER	not soluble
MAEKSYTRFVINGKEQELKFCLQALRLLDENGGPMQFVSQTMQGGITNFTDVVYYALIHTNEGITYEAVQKEIENMFNAEKLDLDEILKYNKAVVLNSFFFQKTVKKLLGTMTAEQQKSFENLYA	not soluble
MHHHHHHHHHHISSASGESQMSLDEIEDVYHTRPGYRPEEYRWGQGGAKIIDYHIQSAGVDFPPSLTGNQQTDFLMKVVFEYDFDCVVPGILIKTLDGLFLYGTNSFLASEGRENISVSRGDVRVFKFSLPVDLNSGDYLLSFGISAGNPQTDMTPLDRRYDSIILHVTKSMDFWGVIDLKSSFTSYQ	soluble
MSLPLPKAELHLHIEGTLEPELAFALAARNGVPLPYAHTDELRKAYQFDDLQSFLNLYYELMAVLRTEQDFEDLANAYLPRAAAQGVRHAEIFFDPQAHIARGVAMGTVVEGLWRALGRSTENHGVSTQLIMCFLRDESAESALETLEAAKPYLDRIIGIGLDSAEVGHPPAKFREVYEAAAALGLRRVAHAGEEGPPEYITEALDVLGVERIDHGLRCMEDDALVERLVRERVPLTLCPLSNVRLRAVDVLAEHPLPAMLDAGLLCTVNSDDPAYFGGYVADNFHAVRDALGLDQERMRELARNSFVASFLEHDEERRARYLAEVEAYDFPGEGHHHHHH	soluble
MGEPFGGPLMGRLVSLLPSATDLIFELGLGEQLLGVSHCCDHPGAASLPVLTRSIIGSDLPQAEIDRAVSEAVRAGRALYTVDGPLLDRLRPDLVVTQGVCEVCAVTPGTVAEAVRFLPGCLPAEQVLSLEGKTFAGILADLRALARAAGVRERGEALAAESERRWNAIRPVGVQVPEPPRVLTLEWVDPPFYGGHWVPEQVAQAGGKDVLGHAGRDSGRTSWEDVVQLDPDVIVVMCCGYGLSDNAEFARQVLSHPELRAVRAGQVWGVDANAHFSRPSLGVVRGAEVLAALLRGEESAGESVRVRAELEHHHHHH	not soluble
RVASNLDNKARVTELFNSAYSILTEVEKLAQEGKMSEPEAKALATRLMRNNLYKDNEYVYVADENMTFVATPLDPQLHDTSFHDFKDGKGNSVGR	not soluble
MAHHHHHHMEALFYDHAVASTATRQADLRQALQAFLADAASRSAVQLIALFVHIPVPSTVSVASHTASGSRTSSRTSSSREGGSAAARHAATGKAASAASPSPPAASRRRCNAAKLAWCAWEADRRLRQAAEDASEMNKWLAHDDLSASRKAGAGIARSYCRGAFVVAVAFLAPCTRDDIVVYESWQRCTEMCAEASAADVARGSASRTTRMLSPLRHARLIALSLGAPSLLLSWAERPTRCHLDSLLLPHQSLLVDLSWWVATASGSAGTVSDAAAGSRVSNSVLRDIFISDVQRSLKLPKGDSRCAVWISYATLLESLHPQVMGRIDGADGDGVSVDMRVAGSASRRKRGRNTLCGEFSGVDEQAFMMTYARIRHLLSSLNASQAGAVGHTRFLRVVLSYGGPSSALRRQLVHTCSRTEHGVTAVDAALLRTRSLVDVHALFGVLAGQDTVNVYSEAAAFVRTARRRASAGEAAQQRHQRIAVQSARVEVTSSPSSGPPGTEHEGVDSGAGNLCHNAFVERGARALARRLRLWERKRLGKRGKRGVHVRPRDKAARRPMKRGHAGTNDADSERVLVHAVERASRAAATPKTGNKRRAEPLASVDGRPSASATRALLPPQKQRRTDAVAVSPTLATDTALRWSEDVAGSG	not soluble
MEIGQRVRINFEVATVRYIGEVDGYGSQRWVGLEWDDPTRGKHDGIVRGKRYFQTRHPNGGSLMKHEIVPKPTDLLFEIKDRYIEEESVETEIELAQSNKKIELIGMDQTAAKQSNIEKLINIVLDNRSVGFPPSSDSPQFILCRELNLYGNLLYKWKTVRQILEYFPRIQELNLRRNRMQCFNEEEDDDESEGDDHVYSDSCKKLVISECNLSENSIDSILLRFPSTSDVVAFGNDLTRFSVSEAVSSRLTSLDLEDNPFKTLDSIHGTFPNLTQLSVANCGITSLNGFDGSIKFPKLEYLNIKRNSIVEWKSVNSIRSLKSLKRLLFDCKKLSTEKGVHAYEIVIAKLSTLIDLNRFDVSEVERRSAEIRFLNKYAGLNDNEDHQDDIKRLIEIHGEPTLDTAKKGLAVVKIRIECGNRVETRRLPLGMSIQKIRDMLARLFKVPNTSKIRLYLVMSEKAKQHRIELENPLREFGHYSPSEDRDILVVEHD	not soluble
MKMDYILSDFAQKQGYAVESYEIVDSTNYIAQQKAHAGHHGYLWVVAKEQSQGRARRGRTWSSPKGNLYSSLLLVEDIVHQTAAQLGFVAGVSVVETIKQFIKDEKQTSDIVSLKWPNDILLRGAKSSGILLEIFKLPSQQYALVIGIGINVKYHYEDAPYPTSSLKNIGLDIETEQLFTVLTEYFSKNYLLWKQLGGCDRIREKWLLYSAHSGQYVKIVNDEKIIEGIFDGLDNDFNCVIKQKNGQQAVITAGDVHFGSSASVNAGCY	not soluble
MGHHHHHHSHMSVSVHENRKSRASSGSINIYLFHKSSYADSVLTHLNLLRQQRLFTDVLLHAGNRTFPCHRAVLAACSRYFEAMFSGGLKESQDSEVNFDNSIHPEVLELLLDYAYSSRVIINEENAESLLEAGDMLEFQDIRDACAEFLEKNLHP	not soluble
MKKLTIGLIGNPNSGKTTLFNQLTGSRQRVGNWAGVTVERKEGQFSTTDHQVTLVDLPGTYSLTTISSQTSLDEQIACHYILSGDADLLINVVDASNLERNLYLTLQLLELGIPCIVALNMLDIAEKQNIRIEIDALSARLGCPVIPLVSTRGRGIEALKLAIDRYKANENVELVHYAQPLLNEADSLAKVMPSDIPLKQRRWLGLQMLEGDIYSRAYAGEASQHLDAALARLRNEMDDPALHIADARYQCIAAICDVVSNTLTAEPSRFTTAV	soluble
MKYKIFASTTPQTEPVLQKLKQVLKGCEAVEKGFDYLFVLGGDGFFVSTVANYNCHNCRVVGINTGHLGFYTSFNEKDLDDNFLQKLQQCHFQRISLLEVSVNGQQHLVLNELAVYTNTAYPINIFIDGEAWEFYRGSGLLIGPRTGSTALAKSAKGAVIFPGIDVLQIIEMNPLLHPNQVTIQSPIILPKETQVEFVVKKAFNPQQFPTFYCDGRKLELPNADTTLALKLVQSTPMFNISLKTQDFINKLKSTFIKQSLEHHHHHH	not soluble
MKLNFNPVTKEEIHQLETALLVGTLFRKEVLEEIRNSAERLTWVDSLAVAAGALARAKAGMTASEIAEELGRTEATIREHVKGETKAGKLVNETYELLKEGKLSVEGLIGEGIKVVTTTTGSDEKLQEVKKELEEIKQKLESVIQKL	soluble
MNEKQADTLLNVPEIVKRAKIALNLKRDSELASYLGVARATLSNWCARNSIDFPLLLNKLRHVDYNWLLTGKGSPLHDPKSFDNGKIRGEVETIHNSKTTEAIDDRSVTLYDITAAANLRTLLSDKRQYALGKILIPSIPACDGAIFVNGDSMYPILKSGDIVGFKGINNFSNVIYGEMYIVAFHLDGDQYLTVKYVNRSEKEGYVKLVSYNPHHEPMDLPVDTIQDMAIVKFSIRKNMMM	not soluble
MGSDKIHHHHHHMLLTDLVTPPDTALCAAAEEMARMASDPFLYNHVSRSYIFGALAARATGTQYDPELFYIAAMLHDLGLTETYMAEDRFEVDAAEAAAKFLAAQNVEQSRIDRVWDAIALHTTFSIPQKKSPEAALVQIGAGLDVGVMPHDHITPEVMEQVLDAYPRLGFKKAMEQALIKVYAAKPMTAMHNFGADVAHRHVPDFHPPHFCDVLHGADFPE	not soluble
SRPRLSQLSVTDVTTSSLRLNWEAPPGAFDSFLLRFGVPSPSTLEPHPRPLLQRELMVPGTRHSAVLRDLRSGTLYSLTLYGLRGPHKADSIQGTARTL	soluble
MDPAKVNTVDEDIKFKEVPGITNILLLSSDARPGEDVSRSDSIMILTIDNINKKLKVTSLMRDMLVKIDGHGEEKLNHAFAYGGPTKTIETIQNNFGIKLNNYVIVDFNAFVKVIDAINGIEVTVKDYELDELNKYILDGGGSEEDLLPSPGTYNLNGYQALSYARIRKVGNGEYERTERQRAVLQIALEKVKDMSTVKLVSLLNELFPYVKTNISLGNAMDYGFTALNVGKKCNFEIEQFRVPLDSISKGGIINNKGWVFVIDKVETSKALQEFIFNDNKNYEPDTSNFDSIIEQYFNDYDIKDDTTHPLEHHHHHH	soluble
MEGIDMLDIKLIRENPELVKNDLIKRGELEKVKWVDEILKLDTEWRTKLKEINRLRHERNKIAVEIGKRRKKGEPVDELLAKSREIVKRIGELENEVEELKKKIDYYLWRLPNITHPSVPVGKDENDNVPIRFWGKARVWKGHLERFLEQSQGKMEYEILEWKPKLHVDLLEILGGADFARAAKVSGSRFYYLLNEIVILDLALIRFALDRLIEKGFTPVIPPYMVRRFVEEGSTSFEDFEDVIYKVEDEDLYLIPTAEHPLAGMHANEILDGKDLPLLYVGVSPCFRKEAGTAGKDTKGIFRVHQFHKVEQFVYSRPEESWEWHEKIIRNAEELFQELEIPYRVVNICTGDLGYVAAKKYDIEAWMPGQGKFREVVSASNCTDWQARRLNIRFRDRTDEKPRYVHTLNSTAIATSRAIVAILENHQEEDGTVRIPKVLWKYTGFKEIVPVEKKERCCAT	soluble
REEDPHEGKIWFHGKISKQEAYNLLMTVGQVCSFLVRPSDNTPGDYSLYFRTNENIQRFKICPTPNNQFMMGGRYYNSIGDIIDHYRKEQIVEGYYLKEPVPMQDQ	soluble
